The target of assay [1] is T1, PD-L1 on the surface of CHO-PD-L1 cells (UniProt Q9NZQ7 19-290, limits assumed). The assay is described as follows: cell-based or functional assay.
Assay [2] has as its target T2, cynomolgus monkey PD-L1-His protein (Sino Biological, Cat. 90251-C08H) (cynomolgus monkey, UniProt G7PSE7 19-239).
T2 construct: Bought reagent; also called cynomolgus PD-L1 recombinant protein; not shown: His tag
The assay is described as follows: SPR (Biacore T200), antibody captured on the chip, PD-L1-His injected, 1:1 model, 25 C. For orientation: In SPR one partner is held on a chip, and binding of the other changes the refractive index at the surface.

The target in assay [3] is T3, recombinant human PD-L1-His protein (Novoprotein, Cat. 315) (human, UniProt Q9NZQ7 19-239).
T3 construct: Bought reagent; also called human PD-L1 recombinant protein; not shown: His tag
T3 sequence (Q9NZQ7 19-239 limits assumed): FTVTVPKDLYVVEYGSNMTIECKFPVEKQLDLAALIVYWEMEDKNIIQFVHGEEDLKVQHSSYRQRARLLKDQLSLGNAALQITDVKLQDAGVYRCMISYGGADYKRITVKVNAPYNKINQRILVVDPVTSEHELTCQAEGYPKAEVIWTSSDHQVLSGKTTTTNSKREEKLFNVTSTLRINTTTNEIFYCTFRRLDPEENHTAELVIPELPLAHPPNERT
Described as above.

The target in assay [4] is T4, Human PD-L1 recombinant protein (Sino Biological, Cat.10084-H05H) (human, UniProt Q9NZQ7 19-239).
T4 construct: also called human PD-L1 protein; PD-L1 protein
T4 sequence (Q9NZQ7 19-239 limits assumed): as above
The assay is described as follows: competitive ELISA: human PD-L1 coated, antibody titrated against human PD-1-His (competitor), anti-His-HRP detection. The method, then:
Human PD-L1 recombinant protein (Sino Biological, Cat.10084-H05H) was diluted with carbonate buffer and added to 96-well ELISA plate at a final concentration of 1 μg/ml. […] The competitive binding curve of the tested antibody could be drawn by matching the antibody concentration to the OD value, and the IC50 value could be calculated.

In assay [5] the target is T1, PD-L1 on the surface of CHO-PD-L1 cells. The assay is described as follows: flow cytometry (FACS) on CHO-PD-L1 cells, anti-human IgG PE detection.

T1 sequence (Q9NZQ7 19-290 limits assumed): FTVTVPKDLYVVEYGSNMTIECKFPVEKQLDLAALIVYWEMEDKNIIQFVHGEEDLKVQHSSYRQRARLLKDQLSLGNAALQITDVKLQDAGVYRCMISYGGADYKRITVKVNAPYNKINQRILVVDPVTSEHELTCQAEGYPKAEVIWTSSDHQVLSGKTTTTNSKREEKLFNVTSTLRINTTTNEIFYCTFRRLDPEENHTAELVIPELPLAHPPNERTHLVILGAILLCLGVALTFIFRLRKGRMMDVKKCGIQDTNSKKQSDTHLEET
T2 sequence (G7PSE7 entry or part of it C08H C08H): as the sequence (Q9NZQ7 19-239 limits assumed) above, with A33T, A34S, S62N, R68Q, Q82R, F173L, T185A, T192I, H215L counted along it

B1: 794-h1-71 (antibody, human IgG1, kappa, V domains shown)
VH: QVQLQQSGPGLVKPSQTLSLTCAVSGDSITSGYWNWIRKFPSRGLEYMGYISYSGSTYYNPFLKSRISINRDTSKNQYYLQLNSVTPEDTAVYYCAKMGDWLAWFAYWGQGTLVTVSS
VL: EIVMTQSPPTLSLSPGERVTLSCKSSQSLLYSSNQKNSLAWYQQKPGQAPRLLIYWASTRESGIPARFSGSGSGTDFTLTISSLQPEDFAVYYCQQYYGYPYTFGQGTKLEIKR
notes: also called humanized PD-L1 antibody
Take B1: the “EC50 of NFAT-controlled luminescent reporter signal (RLU), Jurkat-PD-1 cells co-incubated with CHO-PD-L1 cells” value in assay [1] came to 0.166 mg/L. Also, the Kd in assay [2] stood at 0.937 nM; in assay [3] it was 1.79 nM. Besides, in assay [4], the IC50 is 0.849 nM. For the same molecule, in assay [5], the EC50 worked out at 0.0384 mg/L.

By Kd is commonly meant the concentration at which binding is half-saturated. By IC50 is commonly meant the midpoint of a concentration-inhibition curve. As a reminder, the EC50 is the concentration at which the effect is half-maximal.

The values above are taken from patent US20230192797A1 (published 2023).
